Columns and labels:
[1] = molecular target: the molecule itself; assay: crystal structure; p50 RHR homodimer co-crystallised with κB DNA (IL-6 17-mer, 2.80 Å; NGAL 10-mer, 2.80 Å; Test 16-mer, 3.0 Å); hanging or sitting drop vapor diffusion; one complex per asymmetric unit
NF-kB p50 RHR homodimer [2] = molecular target: T1, NF-kB p50 RHR homodimer (mouse (murine), UniProt P25799 39-363); assay: X-ray crystallography; 11-bp spacing, 2.80 A; Co-crystal structures only; crystallization conditions not in the material; protein stock in 25 mM Tris-HCl pH 7.4, 50 mM NaCl, 1 mM DTT; settings: protein: recombinant; chain copies: 2; blunt
NF-kB p50 RHR homodimer [3] = molecular target: T1, NF-kB p50 RHR homodimer; assay: X-ray crystallography; 12-bp spacing, 2.80 A; 2:1 DNA:p50 dimer; second duplex almost unbound, contributes terminal G; Co-crystal structures only; crystallization conditions not in the material; protein stock in 25 mM Tris-HCl pH 7.4, 50 mM NaCl, 1 mM DTT; settings: protein: recombinant; chain copies: 2; blunt; 2 duplexes per p50 dimer, stacked end-to-end
NF-kB p50 RHR homodimer [4] = molecular target: T1, NF-kB p50 RHR homodimer; assay: X-ray crystallography; 11-bp spacing, 3.0 A; Co-crystal structures only; crystallization conditions not in the material; protein stock in 25 mM Tris-HCl pH 7.4, 50 mM NaCl, 1 mM DTT; settings: protein: recombinant; chain copies: 2

B1: murine NF-κB p50 subunit Rel homology region (amino acid residues 39–363) (domain or fragment, UniProt P25799 39-363, looked up)
chain: GPYLQILEQPKQRGFRFRYVCEGPSHGGLPGASSEKNKKSYPQVKICNYVGPAKVIVQLVTNGKNIHLHAHSLVGKHCEDGVCTVTAGPKDMVVGFANLGILHVTKKKVFETLEARMTEACIRGYNPGLLVHSDLAYLQAEGGGDRQLTDREKEIIRQAAVQQTKEMDLSVVRLMFTAFLPDSTGSFTRRLEPVVSDAIYDSKAPNASNLKIVRMDRTAGCVTGGEEIYLLCDKVQKDDIQIRFYEEEENGGVWEGFGDFSPTDVHRQFAIVFKTPKYKDVNITKPASVFVQLRRKSDLETSEPKPFLYYPEIKDKEEVQRKRQK
notes: 351-363 disordered in the crystals; murine amino acid numbering; also called p50 RHR; NF-κB p50 homodimer; source: E. coli BL21 (DE3), pET11a, purified (SP Sepharose, Superdex 75 size exclusion)
stoichiometry N [1]: 2

B2: IL-6 kB DNA 17-mer (dsDNA)
DNA 1: TGTGGGATTTTCCCATG
DNA 2: CATGGGAAAATCCCACA
binding result (NF-kB p50 RHR homodimer [2]): binds

B3: NGAL kB DNA 10-mer (dsDNA)
DNA 1: GGGAATGTCC
DNA 2: GGACATTCCC
binding result (NF-kB p50 RHR homodimer [3]): binds

B4: Test kB-like DNA 16-mer (dsDNA)
DNA 1: TCAGGGGAATTCCCCTC
DNA 2: AGAGGGGAATTCCCCTG
binding result (NF-kB p50 RHR homodimer [4]): binds

Reference: PMC10527052, “X-ray Crystallographic Study of Preferred Spacing by the NF-κB p50 Homodimer on κB DNA” (Biomolecules, 2023)
